According to patent US20040037843A1:
Where two headings read alike, the source gives them in different places. Values belong to the binder of their own block, whether it stands above or below them. Ends that are not written are not given here.

How the values were obtained:
[1] = molecular target: HLA-A*0206 (human); test: inhibition of 125I probe peptide binding to purified HLA, gel filtration; details: remark: other sources report otherwise
[2] = molecular target: HLA-A*0206 (human); test: competition with 125I-labelled standard peptide for purified HLA, gel filtration; details: remark: other sources report otherwise
[3] = molecular target: HLA-A*0202 (human); test: as above; details: remark: other sources report otherwise
[4] = molecular target: HLA-A*0201 (human); test: as above; details: remark: other sources report otherwise
[5] = molecular target: HLA-A*0203 (human); test: as above; details: remark: other sources report otherwise
[6] = molecular target: HLA-A*2401 (purified HLA class I molecule) (human)
[7] = molecular target: HLA-A*0202 (human); test: inhibition of 125I probe peptide binding to purified HLA, gel filtration; details: remark: other sources report otherwise
[8] = molecular target: HLA-A*0201 (human); test: as above; details: remark: other sources report otherwise
[9] = molecular target: HLA-A*0206 (human); details: remark: other sources report otherwise
[10] = molecular target: HLA-A*0201 (human); details: remark: other sources report otherwise
[11] = molecular target: HLA-A*0203 (human); details: remark: other sources report otherwise
[12] = molecular target: HLA-A*2401 (human); test: competition with 125I-labelled probe peptide for purified HLA, gel filtration
[13] = molecular target: HLA-A*2401 (human); test: as above; remark: listed apart in the source
[14] = molecular target: HLA-A*6802 (human); details: remark: other sources report otherwise
[15] = molecular target: HLA-A*0202 (human); details: remark: other sources report otherwise
[16] = molecular target: HLA-A*0201 (human); test: competition with 125I probe peptide on purified HLA, gel filtration; details: remark: other sources report otherwise
[17] = molecular target: HLA-A*0203 (human); test: as above; details: remark: other sources report otherwise
[18] = molecular target: HLA-A*0202 (human); test: as above; details: remark: other sources report otherwise
[19] = molecular target: HLA-A*2401 (human)
[20] = molecular target: HLA-A*2401 (purified HLA class I molecule) (human); test: competition with 125I-labelled standard peptide for purified HLA, gel filtration
[21] = molecular target: HLA-A*2401 (human); remark: listed apart in the source
[22] = molecular target: HLA-A*0206 (human); test: inhibition of 125I probe peptide binding to purified HLA; details: remark: other sources report otherwise
[23] = molecular target: HLA-A*6802 (human); test: as above; details: remark: other sources report otherwise
[24] = molecular target: HLA-A*0201 (human); test: as above; details: remark: other sources report otherwise
[25] = molecular target: HLA-A*0203 (human); test: as above; details: remark: other sources report otherwise
[26] = scale: ratio to standard peptide

- IC50 [1]: 500 nM
Binder: KLQCVDLHVV [Peptide 63.0058 (PSA.166.V10)]

- relative binding ratio [2, 26]: 0.002
- relative binding ratio [3, 26]: 0.08
- relative binding ratio [4, 26]: 0.003
- relative binding ratio [5, 26]: 0.028
Binder: LLSNDMCARA (not fully specified) [Kallikrein (human kallikrein2) peptide, position 178, 10 amino acids]

- relative binding ratio (IC50 of standard peptide / IC50 of test peptide) [6]: 0.0067
Binder: EYIRKRYRKF [PAP (prostatic acid phosphatase) peptide, position 83, 10 amino acids]

- IC50 [1]: 128 nM
- IC50 [7]: 518 nM
- IC50 [8]: 69 nM
Binder: KVTKFMLCV [Peptide 60.0220 (PSA.187.V9)]

- IC50 [9]: 552 nM
- IC50 [10]: 104 nM
- IC50 [11]: 154 nM
Binder: SVGCTGAVPV [peptide 1418.35 (HuK2.11.V10)]

- relative binding ratio (IC50 of standard peptide / IC50 of test peptide) [6]: 0.0007
Binder: GFLFLLFFWL [PAP (prostatic acid phosphatase) peptide, position 17, 10 amino acids]

- relative binding ratio (IC50 of standard peptide / IC50 of test peptide) [12]: 0.0045
- relative binding ratio (IC50 of standard peptide / IC50 of test peptide) [13]: 0.0045
Binder: LFFWLDRSVL [PAP position 22, 10 amino acids]

- IC50 [7]: 8.4 nM
Binder: FLTLSVTWV [Peptide 60.0216 (PSA.3.V9)]

- relative binding ratio [2, 26]: 0.0002
- relative binding ratio [4, 26]: 0.0023
Binder: LLRLSEPAELT [PSA peptide, position 119, 11 amino acids]

- IC50 [1]: 2850 nM
- IC50 [7]: 159 nM
- IC50 [8]: 385 nM
Binder: VVFLTLSVTWI [Peptide 1419.25 (PSA.1)]

- IC50 [14]: 2580 nM
- IC50 [15]: 51 nM
- IC50 [10]: 500 nM
- IC50 [11]: 417 nM
Binder: SLQCVSLHL [peptide 60.0191 (HuK2.170, 9-mer)]

- IC50 [16]: 73 nM
- IC50 [17]: 256 nM
Binder: ALDVYNGLL [Peptide 1177.02 … (PAP.299)]

- relative binding ratio (IC50 of standard peptide / IC50 of test peptide) [4]: 0.0008
Binder: VISNDVCAQV [PSA position 174, 10 amino acids]

- relative binding ratio [2]: 0.01
- relative binding ratio [3]: 0.0032
- relative binding ratio [4]: 0.0009
- relative binding ratio [5]: 0.027
Binder: IALSVGCTGAV [Kallikrein position 8, 11 amino acids]

- IC50 [1]: 336 nM
- IC50 [8]: 89 nM
Binder: VVFLTLSVTWV [Peptide 63.0185 (PSA.1.V11)]

- IC50 [18]: 1 nM
Binder: ALFPPEGVSV [Peptide 1419.61 … (PAP.122.V10)]

- relative binding ratio [2, 26]: 0.011
- relative binding ratio [3, 26]: 0.045
- relative binding ratio [4, 26]: 0.0018
- relative binding ratio [5, 26]: 0.082
Binder: LTLSVTWIGA [PSA peptide, position 4, 10 amino acids]

- relative binding ratio (IC50 of standard peptide / IC50 of test peptide) [19]: 0.26
Binder: SYKHEQVYI [PAP peptide, position 96, 9 amino acids (A24 supermotif)]

- relative binding ratio (IC50 of standard peptide / IC50 of test peptide) [20]: 0.44
- relative binding ratio (IC50 of standard peptide / IC50 of test peptide) [12]: 0.44
Binder: LYCESVHNF [PAP position 213, 9 amino acids]

- IC50 [9]: 37 nM
- IC50 [14]: 860 nM
- IC50 [15]: 1.3 nM
- IC50 [11]: 5.3 nM
Binder: HLLSNDMCARV [peptide 1418.67 (HuK2.177.V11)]

- relative binding ratio (IC50 of standard peptide / IC50 of test peptide) [21]: 0.0001
Binder: GWGSIEPEEF [Kallikrein position 156, 10 amino acids (…)]

- IC50 [8]: 50 nM
Binder: DLMLLRLSEPV [Peptide 63.0109 (PSA.116.V11)]

- relative binding ratio (IC50 of standard peptide / IC50 of test peptide) [19]: 0.0057
Binder: RYRKFLNESY [PAP peptide, position 88, 10 amino acids (A24 supermotif)]

- IC50 [14]: 5000 nM
- IC50 [10]: 200 nM
Binder: LMLLRLSEPA [peptide 63.0014 (HuK2.121)]

- IC50 [9]: 446 nM
- IC50 [14]: 5000 nM
- IC50 [15]: 4.9 nM
- IC50 [10]: 263 nM
Binder: SLQCVSLHLL [peptide 1419.66 (HuK2.170, 10-mer)]

- relative binding ratio [2]: 0.0001
- relative binding ratio [3]: 0.012
- relative binding ratio [4]: 0.001
- relative binding ratio [5]: 0.0096
Binder: ITSWGSEPCAL (not fully specified) [PSA position 222, 11 amino acids]

- relative binding ratio (IC50 of standard peptide / IC50 of test peptide) [6]: 0.0016
Binder: GFLFLLFFW [PAP (prostatic acid phosphatase) peptide, position 17, 9 amino acids]

- relative binding ratio (IC50 of standard peptide / IC50 of test peptide) [20]: 0.0033
- relative binding ratio (IC50 of standard peptide / IC50 of test peptide) [12]: 0.0033
Binder: LFPPEGVSI [PAP position 123, 9 amino acids]

- relative binding ratio (IC50 of standard peptide / IC50 of test peptide) [21]: 0.0024
Binder: IWSKVYDPL [PAP position 205, 9 amino acids (…)]

- relative binding ratio (IC50 of standard peptide / IC50 of test peptide) [20]: 0.014
- relative binding ratio (IC50 of standard peptide / IC50 of test peptide) [12]: 0.014
Binder: LFPPEGVSIW [PAP position 123, 10 amino acids]

- relative binding ratio (IC50 of standard peptide / IC50 of test peptide) [2]: 0.0037
- relative binding ratio (IC50 of standard peptide / IC50 of test peptide) [3]: 0.022
- relative binding ratio (IC50 of standard peptide / IC50 of test peptide) [4]: 0.0084
- relative binding ratio (IC50 of standard peptide / IC50 of test peptide) [5]: 0.052
Binder: PTQEPALGTT [Kallikrein position 142, 10 amino acids]

- IC50 [18]: 0.9 nM
Binder: GLHGQDLFGI [Peptide 1166.11 … (PAP.196)]

- relative binding ratio (IC50 of standard peptide / IC50 of test peptide) [20]: 2.5
- relative binding ratio (IC50 of standard peptide / IC50 of test peptide) [12]: 2.5
Binder: LYFEKGEYF [PAP position 318, 9 amino acids]

- IC50 [18]: 269 nM
- IC50 [16]: 455 nM
- IC50 [17]: 909 nM
Binder: GVSIWNPIV [Peptide 60.0207 … (PAP.128.V9)]

- IC50 [9]: 4110 nM
- IC50 [10]: 56 nM
- IC50 [11]: 48 nM
Binder: SLQCVSLHV [peptide 1418.19 (HuK2.170.V9)]

- IC50 [22]: 86 nM
- IC50 [23]: 2290 nM
Binder: VLAKELKFVV [Peptide 63.0034 … (PAP.30.V10)]

- relative binding ratio (IC50 of standard peptide / IC50 of test peptide) [21]: 0.055
Binder: HYRKWIKDTI [Kallikrein position 248, 10 amino acids (…)]

- IC50 [22]: 3700 nM
- IC50 [23]: 6670 nM
- IC50 [24]: 385 nM
- IC50 [25]: 37 nM
Binder: TLMSAMTNLA [Peptide 20.0312 … (PAP.112)]

- IC50 [9]: 2310 nM
- IC50 [14]: 2160 nM
- IC50 [15]: 0.8 nM
- IC50 [10]: 8.6 nM
- IC50 [11]: 10 nM
Binder: SLHLLSNDMCV [peptide 1418.66 (HuK2.175.V11)]

- relative binding ratio (IC50 of standard peptide / IC50 of test peptide) [19]: 0.0013
Binder: SWPQGFGQL [PAP peptide, position 62, 9 amino acids (A24 supermotif)]

- relative binding ratio (IC50 of standard peptide / IC50 of test peptide) [6]: 0.0017
Binder: FFWLDRSVL [PAP (prostatic acid phosphatase) peptide, position 23, 9 amino acids]

- IC50 [23]: 6670 nM
- IC50 [25]: 3.8 nM
Binder: SLLAKELKFV [Peptide 63.0033 … (PAP.29.L2)]
